The source of these data is publication PMC3469567.

Several values for one entry are separate records, joined by “and”; a condition that tells them apart may be missing. Equal entries are not always repeated.

For test [1], the target named is DFDNB-cross-linked native dimer of N67D-BS-RNase (bovine) (UniProt P00669). The test can be described thus: SEC; oligomers induced by lyophilisation from 40% acetic acid, re-dissolved in 0.2 or 0.4 M NaPi pH 6.7; Sephadex G-100 (0.1 M ammonium acetate pH 5.65) or Superdex 75 10/300 GL (0.2 or 0.4 M NaPi pH 6.7), room temperature; amounts as percent area of SEC peaks.

For test [2], the target named is (N67D/)K113N-BS-RNase (bovine) (UniProt P00669). The test can be described thus: SEC; thermally induced oligomerisation: 150-200 mg/ml in aqueous media (40% EtOH, with or without guanidine, and others), 45, 50 or 60°C for 1 h, then 0.2 M NaPi pH 6.7; Superdex 75.
Test [3] has the same target. Put plainly: SEC; oligomers induced by lyophilisation from 40% acetic acid, re-dissolved in 0.2 or 0.4 M NaPi pH 6.7; Sephadex G-100 (0.1 M ammonium acetate pH 5.65) or Superdex 75 10/300 GL (0.2 or 0.4 M NaPi pH 6.7), room temperature; amounts as percent area of SEC peaks.
The target is the same in test [4]. Put plainly: SEC; thermally induced oligomerisation: 150-200 mg/ml in aqueous media (40% EtOH, with or without guanidine, and others), 45, 50 or 60°C for 1 h, then 0.2 M NaPi pH 6.7; Superdex 75. This is another data set of the same source.
Test [5] concerns the target T1, bovine pancreatic ribonuclease (RNase A) (bovine), P61823.
T1 chain: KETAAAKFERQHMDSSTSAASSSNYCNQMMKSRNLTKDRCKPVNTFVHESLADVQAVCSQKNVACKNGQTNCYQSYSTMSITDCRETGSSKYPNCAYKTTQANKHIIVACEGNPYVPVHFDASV
Described as above. The conditions noted are these: remark: other sources report otherwise.

Test [6] deals with T1, bovine pancreatic ribonuclease (RNase …). The test can be described thus: SEC; oligomers induced by lyophilisation from 40% acetic acid, re-dissolved in 0.2 or 0.4 M NaPi pH 6.7; Sephadex G-100 (0.1 M ammonium acetate pH 5.65) or Superdex 75 10/300 GL (0.2 or 0.4 M NaPi pH 6.7), room temperature; amounts as percent area of SEC peaks. The conditions noted are these: remark: other sources report otherwise.

Regarding “DFDNB-cross-linked native dimer of N67D-BS-RNase (from UniProt P00669 27-150) (enzyme)”, in test [1], the stoichiometry N turned out to be 4.
“(N67D/)K113N-BS-RNase (from UniProt P00669 27-150) (enzyme)” displayed a stoichiometry N in test [2] of over 4. In test [3], the stoichiometry N stood at 4, the yield of dimer D (% of the total) (% of the total) was 53.7, the yield of hexamers H (% of the total) (% of the total) worked out at 10.9 and the yield of larger oligomers L.O. (% of the total) (% of the total) is 9.9. In test [3], this molecule displayed a yield of tetramer TT1/C (% of the total) (% of the total) of 13.3 and a yield of tetramer TT2/N (% of the total) (% of the total) of 12.2. In addition, the stoichiometry N in test [4] is 4.

B1: bovine pancreatic ribonuclease (RNase A), P61823 27-150 (enzyme)
chain: T1 chain
For B1, the stoichiometry N in test [5] is 2; in test [6], 2 and 3 and 4.
